This data set has as its target T1, CasEnd-29 (synthetic construct).
T1 chain: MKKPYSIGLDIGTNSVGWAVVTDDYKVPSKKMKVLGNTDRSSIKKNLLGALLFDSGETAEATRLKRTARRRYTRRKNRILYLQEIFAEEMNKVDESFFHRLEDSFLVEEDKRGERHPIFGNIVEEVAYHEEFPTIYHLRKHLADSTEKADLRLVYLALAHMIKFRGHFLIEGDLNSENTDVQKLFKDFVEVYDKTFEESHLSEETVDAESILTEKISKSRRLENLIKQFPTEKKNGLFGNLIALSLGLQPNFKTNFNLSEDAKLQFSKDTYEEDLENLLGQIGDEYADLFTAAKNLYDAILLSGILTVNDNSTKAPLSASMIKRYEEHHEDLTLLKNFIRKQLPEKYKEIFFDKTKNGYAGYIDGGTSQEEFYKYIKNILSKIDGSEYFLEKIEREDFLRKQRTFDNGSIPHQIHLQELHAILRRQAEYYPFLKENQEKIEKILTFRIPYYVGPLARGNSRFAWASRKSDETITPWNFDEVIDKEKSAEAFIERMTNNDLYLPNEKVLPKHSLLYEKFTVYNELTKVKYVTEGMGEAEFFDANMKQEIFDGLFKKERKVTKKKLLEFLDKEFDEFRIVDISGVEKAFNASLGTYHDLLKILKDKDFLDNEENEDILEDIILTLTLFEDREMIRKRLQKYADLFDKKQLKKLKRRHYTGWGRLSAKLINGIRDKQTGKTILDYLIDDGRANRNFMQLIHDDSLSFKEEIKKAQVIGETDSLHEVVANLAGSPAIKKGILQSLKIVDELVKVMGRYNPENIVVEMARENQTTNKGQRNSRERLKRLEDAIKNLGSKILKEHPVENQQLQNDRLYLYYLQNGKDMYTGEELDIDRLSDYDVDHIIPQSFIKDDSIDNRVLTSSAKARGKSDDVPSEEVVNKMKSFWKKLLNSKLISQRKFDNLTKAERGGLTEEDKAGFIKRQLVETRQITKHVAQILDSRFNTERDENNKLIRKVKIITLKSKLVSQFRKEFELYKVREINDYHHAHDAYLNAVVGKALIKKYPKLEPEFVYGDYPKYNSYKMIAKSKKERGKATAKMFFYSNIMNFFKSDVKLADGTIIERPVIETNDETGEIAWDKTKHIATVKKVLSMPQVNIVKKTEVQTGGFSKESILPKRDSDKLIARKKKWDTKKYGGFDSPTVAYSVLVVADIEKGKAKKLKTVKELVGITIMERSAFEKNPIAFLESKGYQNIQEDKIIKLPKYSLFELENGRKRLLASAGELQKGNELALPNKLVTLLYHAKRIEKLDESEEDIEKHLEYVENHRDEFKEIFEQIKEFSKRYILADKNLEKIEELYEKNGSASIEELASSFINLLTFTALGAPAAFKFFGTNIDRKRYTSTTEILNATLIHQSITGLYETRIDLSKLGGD
In words: cell_activity; +++; HEK293T; PAM not stated. An outline of the steps:
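Editing activity was scored as the fraction of GFP+ cells on day 4 by flow cytometry. BFP-expressing HEK293T cells (250,000) received by nucleofection 200 ng plasmid for the RT-Cas fusion protein and 200 ng template RNA plasmid designed to convert BFP to GFP.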

B1: BFP-to-GFP template RNA ; BFP reporter protospacer (ssRNA ; dsDNA)
RNA: GCCGAAGCACUGCACGCCGUGUUUUAGAGCUAGAAAUAGCAAGUUAAAAUAAGGCUAGUCCGUUAUCAACUUGAAAAAGUGGCACCGAGUCGGUGCACCCUGACGUACGGCGUGCAGUGCUU
DNA 1: GCCGAAGCACTGCACGCCGT
DNA 2: ACGGCGTGCAGTGCTTCGGC
For B1, the activity was ≥ 100 % of reference.

The values above are taken from US20250092426, “CAS ENDONUCLEASES AND RELATED METHODS” (Flagship Pioneering Innovations VII, LLC, published 2025).
